According to patent US20200338049A1, “AGENT FOR TREATING FABRY DISEASE, ANALGESIC FOR EXTERNAL USE AND PERSPIRATION ACCELERATOR” (OSAKA UNIVERSITY, priority 2016, published 2020):

How the values were obtained:
[1] = test system: angiokeratoma of Fabry disease patient; experiment: Course of angiokeratomas of Fabry disease patient receiving ERT; type: in vivo, human; details: ERT over eight years
Text: (§1) The activation state of mTOR in an angiokeratoma of a Fabry disease patient, and the effects of ERT (conventional treatment method to treat Fabry disease) on an angiokeratoma, were checked. An enzyme used in ERT of this test was agalsidase beta, and specific processes of the treatment method were based on usual dosages.

[2] = test system: p-mTOR; experiment: p-mTOR staining of angiokeratoma of Fabry disease patient before and after ERT; type: in vivo, human; details: p-mTOR fluorescent staining
Text: as §1
A piece of the skin of a Fabry disease patient including an angiokeratoma lesion was stained with an anti-p-mTOR antibody, and the activation state of mTOR was checked.

[3] = test system: dorsal root ganglion cells (DRG cells); experiment: Axon extension of cultured dorsal root ganglion cells; type: cell-based; details: DRG cells of 20-week-old wild-type mouse
Description: Dorsal root ganglion cells (DRG cells) were taken from a 20-week-old wild-type mouse. The dorsal root ganglion nerve cells thus taken were first subjected to extraction with Ham's 12 containing 30% Percoll, and then were cultured at 37° C. for 2 days with the use of a Gibco Neurobasal-A medium (manufactured by Gibco) supplemented with 2 mM GlutaMaxl, 2% B-27 w/o Vitamin A, 5 ng/mL recombinant BDNF carrier free, and 10 ng/mL recombinant human-beta NGF carrier free. Then, the culture medium was replaced with a medium supplemented with 2 mM GlutaMaxl, 2% B-27 w/o Vitamin A, 10 μM Retinoic Acidn, and 100 ng/mL recombinant human-beta NGF carrier free, and then a comparative observation of the extension of axons was carried out with a microscope (BZ-X710, manufactured by KEYENCE), and microscope images were taken.

| Molecule | effect on angiokeratomas [1] | mTOR activity in angiokeratoma after ERT [2] | extension of axons [3] |
| --- | --- | --- | --- |
| agalsidase beta (protein, UniProt P06280 32-429, looked up, agalsidase beta, enzyme replacement therapy; enzyme used was agalsidase beta, usual dosages) Alpha-galactosidase A: LDNGLARTPTMGWLHWERFMCNLDCQEEPDSCISEKLFMEMAELMVSEGWKDAGYEYLCIDDCWMAPQRDSEGRLQADPQRFPHGIRQLANYVHSKGLKLGIYADVGNKTCAGFPGSFGYYDIDAQTFADWGVDLLKFDGCYCDSLENLADGYKHMSLALNRTGRSIVYSCEWPLYMWPFQKPNYTEIRQYCNHWRNFADIDDSWKSIKSILDWTSFNQERIVDVAGPGGWNDPDMLVIGNFGLSWNQQVTQMALWAIMAAPLFMSNDLRHISPQAKALLQDKDVIAINQDPLGKQGYQLRQGDNFEVWERPLSGLAWAVAMINRQEIGGPRSYTIAVASLGKGVACNPACFITQLLPVKRKLGFYEWTSRLRSHINPTGTVLLQLENTMQMSLKDLL | not effective in treating angiokeratomas | mTOR is also active |  |
| BDNF: recombinant BDNF carrier free, brain-derived neurotrophic factor (protein, UniProt P23560 19-247, looked up) Neurotrophic factor BDNF …: APMKEANIRGQGGLAYPGVRTHGTLESVNGPKAGSRGLTSLADTFEHVIEELLDEDQKVRPNEENNKDADLYTSRVMLSSQVPLEPPLLFLLEEYKNYLDAANMSMRVRRHSDPARRGELSVCDSISEWVTAADKKTAVDMSGGTVTVLEKVPVSKGQLKQYFYETKCNPMGYTKEGCRGIDKRHWNSQCRTTQSYVRALTMDSKKRIGWRFIRIDTSCVCTLTIKRGR |  |  | axons were found to have extended |
